Reference: paper PMC9741652, “CRL2^ZER1/ZYG11B recognizes small N-terminal residues for degradation” (Nature Communications, 2022)

Legend:
[1] = target: T1, GST-fused ZER1 (residues 469–766) (human, UniProt Q7Z7L7 469-766); assay: peptide or protein array; peptide SPOT array on cellulose membrane; purified GST-tagged ZER1 (50 nM) or ZYG11B (230 nM) in 10% glycerol, 0.1 M KCl, 1 mM EDTA, 20 mM HEPES pH 7.5, 1 h at room temperature; detected with anti-GST by chemiluminescence; settings: both partners purified
T1 construct: ZER1, human, residues 469-766; Vector pACYC-GST is Addgene Plasmid #62329; also called GST-tagged ZER1_(469–766); source: purified; cloned into pACYC-GST
T1 sequence (Q7Z7L7 469-766): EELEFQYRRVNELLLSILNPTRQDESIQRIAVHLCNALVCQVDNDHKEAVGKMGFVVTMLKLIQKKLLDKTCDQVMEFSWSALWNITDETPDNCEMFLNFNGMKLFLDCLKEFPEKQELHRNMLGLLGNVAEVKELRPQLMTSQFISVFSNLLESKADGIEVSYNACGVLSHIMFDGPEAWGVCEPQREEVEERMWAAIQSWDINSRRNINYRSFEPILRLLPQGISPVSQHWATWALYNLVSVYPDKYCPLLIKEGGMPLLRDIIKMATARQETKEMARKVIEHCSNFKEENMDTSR

[2] = target: T2, GST-fused ZYG11B (residues 490–744) (UniProt Q9C0D3 490-744); assay: as above; settings: both partners purified
T2 construct: ZYG11B, residues 490-744; Vector pACYC-GST is Addgene Plasmid #62329; also called GST-tagged ZYG11B_(490–744); source: purified; cloned into pACYC-GST
T2 sequence (Q9C0D3 490-744): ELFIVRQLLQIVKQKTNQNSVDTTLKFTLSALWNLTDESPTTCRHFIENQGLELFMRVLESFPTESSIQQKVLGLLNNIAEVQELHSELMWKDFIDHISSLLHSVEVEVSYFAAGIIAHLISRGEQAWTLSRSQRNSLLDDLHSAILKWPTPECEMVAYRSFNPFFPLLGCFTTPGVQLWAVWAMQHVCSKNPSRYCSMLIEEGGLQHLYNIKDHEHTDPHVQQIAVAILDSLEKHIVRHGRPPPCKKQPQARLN

B1: SFLHVGQDGLELPTS peptide (15-mer, position 1 Ser) (peptide)
peptide: SFLHVGQDGLELPTS
notes: numbers count on: the peptide; Spot on a cellulose membrane; also called Nt-Ser (SPOT array); source: synthetic peptide, synthesized on cellulose membrane (SPOT array)
binding result [1]: binds | binding result [2]: binds

B2: TFLHVGQDGLELPTS peptide (15-mer, position 1 Thr) (peptide)
peptide: TFLHVGQDGLELPTS
notes: numbers count on: the peptide; Spot on a cellulose membrane; also called Nt-Thr (SPOT array); source: synthetic peptide, synthesized on cellulose membrane (SPOT array)
binding result [1]: binds

B3: AFLHVGQDGLELPTS peptide (15-mer, position 1 Ala) (peptide)
peptide: AFLHVGQDGLELPTS
notes: numbers count on: the peptide; Spot on a cellulose membrane; also called Nt-Ala (SPOT array); source: synthetic peptide, synthesized on cellulose membrane (SPOT array)
binding result [1]: binds | binding result [2]: binds

B4: GFLHVGQDGLELPTS peptide (15-mer from the N-terminus of ZNF701) (peptide)
peptide: GFLHVGQDGLELPTS
notes: 15-mer derived from the N-terminus of ZNF701; Spot on a cellulose membrane; also called Nt-Gly (SPOT array); source: synthetic peptide, synthesized on cellulose membrane (SPOT array)
binding result [2]: binds
